The chains are these.
B1: ZNF449 (parent)
chain: HKKKSPGEKPHRCPQCGKCFARKS
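Further: lentivirally expressed fusions sorted by FACS into six bins by GFP to DsRed ratio, PSI derived from sequencing read proportions per bin multiplied by bin number.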

In the data set the parent is B1. The experiment in a line: protein stability index of a GFP-peptide fusion (GPS, HEK-293T) (PSI 1-6); higher = more stable. Conditions: c terminus: a fixed tail appended.
Regarding HKKKSPGEKPHRCPQCGKCFTRKS [A21T], the protein stability index amounted to 3.69.

On to HKKKSPGEKPHRCPQCGKCFYRKS [A21Y], for which the protein stability index came to 3.27.

In the case of HKKKSPGEKPHRCPQCGKCFVRKS [A21V], the protein stability index was 4.04.

Turning to HKKKSPGEKPHRCPQCGKCFCRKS [A21C], the protein stability index is 2.66.

Regarding HKKKSPGEKPHRCPQCGKCFDRKS [A21D], the protein stability index was 3.51.

In the case of HKKKSPGEKPHRCPQCGKCFKRKS [A21K], the protein stability index was 3.99.

Consider HDKKSPGEKPHRCPQCGKCFARKS [K2D], for which the protein stability index came to 2.92.

With HSKKSPGEKPHRCPQCGKCFARKS [K2S], the protein stability index worked out at 3.19.

Turning to HTKKSPGEKPHRCPQCGKCFARKS [K2T], the protein stability index was determined as 3.03.

On to HYKKSPGEKPHRCPQCGKCFARKS [K2Y], for which the protein stability index amounted to 2.37.

In the case of HFKKSPGEKPHRCPQCGKCFARKS [K2F], the protein stability index was 3.32.

HMKKSPGEKPHRCPQCGKCFARKS [K2M]: the protein stability index stood at 2.52.

Regarding HHKKSPGEKPHRCPQCGKCFARKS [K2H], the protein stability index worked out at 3.27.

In the case of HNKKSPGEKPHRCPQCGKCFARKS [K2N], the protein stability index was 3.78.

As for HVKKSPGEKPHRCPQCGKCFARKS [K2V], the protein stability index was 3.25.

In the case of HWKKSPGEKPHRCPQCGKCFARKS [K2W], the protein stability index was found to be 3.04.

For the variant HGKKSPGEKPHRCPQCGKCFARKS [K2G], the protein stability index is 3.43.

As for HPKKSPGEKPHRCPQCGKCFARKS [K2P], the protein stability index came out at 3.46.

HLKKSPGEKPHRCPQCGKCFARKS [K2L]: the protein stability index was determined as 3.41.

In the case of HAKKSPGEKPHRCPQCGKCFARKS [K2A], the protein stability index turned out to be 3.42.

Consider HKKKSPGEKPHRNPQCGKCFARKS [C13N], for which the protein stability index came to 4.95.

With HKKKSPGEKPHRDPQCGKCFARKS [C13D], the protein stability index turned out to be 4.36.

As for HKKKSPGEKPHREPQCGKCFARKS [C13E], the protein stability index was 4.34.

Regarding HKKKSPGEKPHRVPQCGKCFARKS [C13V], the protein stability index is 4.69.

Consider HKKKSPGEKPHRQPQCGKCFARKS [C13Q], for which the protein stability index was 3.88.

Regarding HKKKSPGEKPHRHPQCGKCFARKS [C13H], the protein stability index was 4.07.

Take HKKKSPGEKPHRKPQCGKCFARKS [C13K]: the protein stability index worked out at 4.26.

Regarding HKKKSPGEKPHRFPQCGKCFARKS [C13F], the protein stability index was 2.71.

For the variant HKKKSPGEKPHRWPQCGKCFARKS [C13W], the protein stability index was found to be 3.15.

For the variant HKKKSPGEKPGRCPQCGKCFARKS [H11G], the protein stability index came out at 3.57.

In the case of HKKKSPGEKPCRCPQCGKCFARKS [H11C], the protein stability index worked out at 4.53.

For HKKKSPGEKPMRCPQCGKCFARKS [H11M], the protein stability index was 3.18.

For the variant HKKKSPGEKPYRCPQCGKCFARKS [H11Y], the protein stability index worked out at 3.02.

As for HKKKSPGEKPTRCPQCGKCFARKS [H11T], the protein stability index is 3.49.

Take HKKKSPGEKPKRCPQCGKCFARKS [H11K]: the protein stability index was found to be 3.28.

As for HKKKSPGEKPLRCPQCGKCFARKS [H11L], the protein stability index turned out to be 3.19.

HKKKSPGEKPWRCPQCGKCFARKS [H11W]: the protein stability index was 3.54.

For the variant HKKKHPGEKPHRCPQCGKCFARKS [S5H], the protein stability index was 3.32.

As for HKKKMPGEKPHRCPQCGKCFARKS [S5M], the protein stability index is 3.18.

Turning to HKKKIPGEKPHRCPQCGKCFARKS [S5I], the protein stability index is 3.26.

Turning to HKKKFPGEKPHRCPQCGKCFARKS [S5F], the protein stability index stood at 3.4.

In the case of HKKKPPGEKPHRCPQCGKCFARKS [S5P], the protein stability index was 2.71.

As to HKKKQPGEKPHRCPQCGKCFARKS [S5Q], the protein stability index is 3.84.

As for HKKKLPGEKPHRCPQCGKCFARKS [S5L], the protein stability index was found to be 3.23.

As to HKKKNPGEKPHRCPQCGKCFARKS [S5N], the protein stability index is 3.88.

Regarding HKKKAPGEKPHRCPQCGKCFARKS [S5A], the protein stability index was found to be 4.1.

Turning to HKKKSPGEKPHRCPQCGNCFARKS [K18N], the protein stability index was 3.87.

For the variant HKKKSPGEKPHRCPQCGSCFARKS [K18S], the protein stability index is 2.94.

As to HKKKSPGEKPHRCPQCGHCFARKS [K18H], the protein stability index amounted to 4.25.

With HKKKSPGEKPHRCPQCGVCFARKS [K18V], the protein stability index was found to be 2.9.

For HKKKSPGEKPHRCPQCGFCFARKS [K18F], the protein stability index is 5.18.

Take HKKKSPGEKPHRCPQCGWCFARKS [K18W]: the protein stability index amounted to 2.5.

As for HKKKSPGEKPHRCPQCGICFARKS [K18I], the protein stability index worked out at 2.52.

For the variant HKKKSPGEKPHRCPQCGCCFARKS [K18C], the protein stability index was determined as 3.29.

HKKKSPGEKPHRCPQCGDCFARKS [K18D]: the protein stability index was found to be 2.17.

Take HKKKSPGEKPHRCPQCGKCFARFS [K23F]: the protein stability index was 1.75.

For the variant HKKKSPGEKPHRCPQCGKCFARRS [K23R], the protein stability index stood at 3.3.

HKKKSPGEKPHRCPQCGKCFARNS [K23N]: the protein stability index was determined as 2.72.

Turning to HKKKSPGEKPHRCPQCGKCFARWS [K23W], the protein stability index worked out at 2.68.

Consider HKKKSPGEKPHRCPQCGKCFARIS [K23I], for which the protein stability index stood at 2.09.

For HKKKSPGEKPHRCPQCGKCFARES [K23E], the protein stability index came to 2.5.

For HKKKSPGEKPHRCPQCGKCFARGS [K23G], the protein stability index amounted to 3.12.

For HKKKSPGEKPHRCPQCGKCFARSS [K23S], the protein stability index amounted to 2.03.

Regarding HKKKSVGEKPHRCPQCGKCFARKS [P6V], the protein stability index was determined as 2.98.

As to HKKKSTGEKPHRCPQCGKCFARKS [P6T], the protein stability index stood at 4.38.

Take HKKKSQGEKPHRCPQCGKCFARKS [P6Q]: the protein stability index was determined as 3.57.

Turning to HKKKSNGEKPHRCPQCGKCFARKS [P6N], the protein stability index came out at 3.44.

Consider HKKKSWGEKPHRCPQCGKCFARKS [P6W], for which the protein stability index is 3.05.

Consider HKKKSGGEKPHRCPQCGKCFARKS [P6G], for which the protein stability index is 4.52.

Turning to HKKKSPGRKPHRCPQCGKCFARKS [E8R], the protein stability index came out at 3.99.

Turning to HKKKSPGKKPHRCPQCGKCFARKS [E8K], the protein stability index came to 3.57.

For HKKKSPGLKPHRCPQCGKCFARKS [E8L], the protein stability index is 3.01.

For the variant HKKKSPGVKPHRCPQCGKCFARKS [E8V], the protein stability index is 3.79.

For HKKKSPGQKPHRCPQCGKCFARKS [E8Q], the protein stability index amounted to 2.99.

For HKKKSPGFKPHRCPQCGKCFARKS [E8F], the protein stability index worked out at 3.14.

Take HKKKSPGDKPHRCPQCGKCFARKS [E8D]: the protein stability index is 3.81.

As to HKKKSPGYKPHRCPQCGKCFARKS [E8Y], the protein stability index is 3.9.

On to HKKKSPGPKPHRCPQCGKCFARKS [E8P], for which the protein stability index was determined as 3.63.

Consider HKKKSPGAKPHRCPQCGKCFARKS [E8A], for which the protein stability index was found to be 3.41.

Regarding HKKKSPGMKPHRCPQCGKCFARKS [E8M], the protein stability index is 2.93.

As to HKKKSPGEKPHRCPQQGKCFARKS [C16Q], the protein stability index came out at 4.18.

Take HKKKSPGEKPHRCPQYGKCFARKS [C16Y]: the protein stability index turned out to be 4.59.

As to HKKKSPGEKPHRCPQGGKCFARKS [C16G], the protein stability index worked out at 4.53.

Regarding HKKKSPGEKPHRCPQRGKCFARKS [C16R], the protein stability index came to 3.42.

With HKKKSPGEKPHRCPQEGKCFARKS [C16E], the protein stability index was found to be 4.71.

As for HKKKSPGEKPHRCPQNGKCFARKS [C16N], the protein stability index worked out at 3.64.

With HKKKSPGEKPHRCPQAGKCFARKS [C16A], the protein stability index was 4.73.

Turning to HKKKSPGEKPHRCPQIGKCFARKS [C16I], the protein stability index came out at 4.24.

Take HKKKSPGEKPHRCNQCGKCFARKS [P14N]: the protein stability index was 3.87.

Regarding HKKKSPGEKPHRCKQCGKCFARKS [P14K], the protein stability index worked out at 3.78.

Turning to HKKKSPGEKPHRCEQCGKCFARKS [P14E], the protein stability index worked out at 3.79.

As for HKKKSPGEKPHRCVQCGKCFARKS [P14V], the protein stability index came out at 3.75.

For HKKKSPGEKPHRCSQCGKCFARKS [P14S], the protein stability index turned out to be 3.01.

HKKKSPGEKPHRCAQCGKCFARKS [P14A]: the protein stability index was 3.01.
